Experimental data as given in patent US7132278B2, “PAS kinase” (Board of Regents, The University of Texas System, priority 2001, dated 2006).

Test system: AMARA peptide
Assay: PASK kinase assay, 32P incorporation into AMARA peptide substrate
Type: biochemical, human
Conditions: for Catalytic activity: baculovirus-expressed enzyme variant
Procedure: Biochemical properties of the Pask enzyme. A recombinant baculovirus was engineered to overexpress human PASK enzyme in cultured insect cells. The enzyme was expressed as a fusion with a His6 tag at its amino terminus such that the recombinant polypeptide could be purified by Ni-affinity chromatography. Routine enzyme preparations were harvested from 0.8 liter of cultured Sf-9 cells. Cells were lysed by dounce homogenization in 50 mM Tris-HCl, pH 8.0, 100 mM NaCl, 0.04% β-mercaptoethanol (“lysis buffer”) and spun at 100,000×G for one hour to remove insoluble debris. Soluble material (˜50 ml) was then applied to a 3 ml bed volume of Ni-affinity resin. Following application and 50× column volume wash, bound material was eluted with storage buffer (50 mM HEPES, pH 7.4, 100 mM NaCl, 1 mM DTT, 1 mM EDTA) supplemented with 250 mM imidazole. Eluted material was sequentially subjected to Mono-Q, anion-exchange chromatography, and eluted with increasing NaCl concentration. Fractions were evaluated by SDS-PAGE to identify PASK enriched fractions, pooled and dialyzed against storage buffer supplemented with 10% glycerol. Typical enzyme preparations yield 0.5 mg of intact PASK enzyme judged to be greater than 95% pure by visual inspection of Coomassie-stained SDS-PAGE gels.
Kinetic data were used to characterize the activities of PASK enzyme samples derived without modification from baculovirus and following pre-phosphorylation in the presence of ATP. Enzyme activity was monitored using a synthetic substrate bearing the sequence NH2-[…]-CO2H (AMARA peptide, SEQ ID NO:9). The serine residue in this peptide is known to be phosphorylated by both AMPK and Snf1 [2], both of which are exceedingly similar in primary amino acid sequence to the catalytic domain of PASK. The three arginine residues located at the carboxyl terminus of the AMARA peptide allow avid binding to phosphocellulose paper, thereby facilitating quantitation of ^32P incorporation catalyzed by PASK from [γ-^32P]ATP. […] Moreover, lambda phosphatase treatment generated an enzyme which had 7-fold lower activity than the unmodified enzyme, and this treatment was fully reversible by allowing the enzyme to autophosphorylate in the presence of ATP.
PASK concentrations (0.5–2 μg/ml) were determined to have linear rates with respect to protein concentration and time. Kinetic constants were determined using peptide substrate concentrations between 0.06–1 mM. The data were fit to a non-linear Michaelis-Menten equation using the GraphPad Prism 2.0 program. Vmax values given are μmol/min/mg. NS indicates an SE less than 0.05.

Molecule	Catalytic activity	Vmax (Pre-phosphorylated enzyme, peptide substrate) [µmol/min/mg]	Km (Pre-phosphorylated enzyme, peptide substrate 0.06–1 mM) [µM]
K1028R: dominant negative human PASK, conserved lysine in ATP-binding region mutated to arginine (protein, UniProt Q96RG2 1-1323, looked up, variant K1028R) PAS domain-containing …: MEDGGLTAFEEDQRCLSQSLPLPVSAEGPAAQTTAEPSRSFSSAHRHLSRRNGLSRLCQSRTALSEDRWSSYCLSSLAAQNICTSKLHCPAAPEHTDPSEPRGSVSCCSLLRGLSSGWSSPLLPAPVCNPNKAIFTVDAKTTEILVANDKACGLLGYSSQDLIGQKLTQFFLRSDSDVVEALSEEHMEADGHAAVVFGTVVDIISRSGEKIPVSVWMKRMRQERRLCCVVVLEPVERVSTWVAFQSDGTVTSCDSLFAHLHGYVSGEDVAGQHITDLIPSVQLPPSGQHIPKNLKIQRSVGRARDGTTFPLSLKLKSQPSSEEATTGEAAPVSGYRASVWVFCTISGLITLLPDGTIHGINHSFALTLFGYGKTELLGKNITFLIPGFYSYMDLAYNSSLQLPDLASCLDVGNESGCGERTLDPWQGQDPAEGGQDPRINVVLAGGHVVPRDEIRKLMESQDIFTGTQTELIAGGQLLSCLSPQPAPGVDNVPEGSLPVHGEQALPKDQQITALGREEPVAIESPGQDLLGESRSEPVDVKPFASCEDSEAPVPAEDGGSDAGMCGLCQKAQLERMGVSGPSGSDLWAGAAVAKPQAKGQLAGGSLLMHCPCYGSEWGLWWRSQDLAPSPSGMAGLSFGTPTLDEPWLGVENDREELQTCLIKEQLSQLSLAGALDVPHAELVPTECQAVTAPVSSCDLGGRDLCGGCTGSSSACYALATDLPGGLEAVEAQEVDVNSFSWNLKELFFSDQTDQTSSNCSCATSELRETPSSLAVGSDPDVGSLQEQGSCVLDDRELLLLTGTCVDLGQGRRFRESCVGHDPTEPLEVCLVSSEHYAASDRESPGHVPSTLDAGPEDTCPSAEEPRLNVQVTSTPVIVMRGAAGLQREIQEGAYSGSCYHRDGLRLSIQFEVRRVELQGPTPLFCCWLVKDLLHSQRDSAARTRLFLASLPGSTHSTAAELTGPSLVEVLRARPWFEEPPKAVELEGLAACEGEYSQKYSTMSPLGSGAFGFVWTAVDKEKNKEVVVRFIKKEKVLEDCWIEDPKLGKVTLEIAILSRVEHANIIKVLDIFENQGFFQLVMEKHGSGLDLFAFIDRHPRLDEPLASYIFRQLVSAVGYLRLKDIIHRDIKDENIVIAEDFTIKLIDFGSAAYLERGKLFYTFCGTIEYCAPEVLMGNPYRGPELEMWSLGVTLYTLVFEENPFCELEETVEAAIHPPYLVSKELMSLVSGLLQPVPERRTTLEKLVTDPWVTQPVNLADYTWEEVFRVNKPESGVLSAASLEMGNRSLSDVAQAQELCGGPVPGEAPNGQGCLHPGDPRLLTS	completely inactive	–	–
T1165A: PASK mutant, threonine residue 1165 changed to alanine (protein, UniProt Q96RG2 1-1323, looked up, variant T1165A) PAS domain-containing …: MEDGGLTAFEEDQRCLSQSLPLPVSAEGPAAQTTAEPSRSFSSAHRHLSRRNGLSRLCQSRTALSEDRWSSYCLSSLAAQNICTSKLHCPAAPEHTDPSEPRGSVSCCSLLRGLSSGWSSPLLPAPVCNPNKAIFTVDAKTTEILVANDKACGLLGYSSQDLIGQKLTQFFLRSDSDVVEALSEEHMEADGHAAVVFGTVVDIISRSGEKIPVSVWMKRMRQERRLCCVVVLEPVERVSTWVAFQSDGTVTSCDSLFAHLHGYVSGEDVAGQHITDLIPSVQLPPSGQHIPKNLKIQRSVGRARDGTTFPLSLKLKSQPSSEEATTGEAAPVSGYRASVWVFCTISGLITLLPDGTIHGINHSFALTLFGYGKTELLGKNITFLIPGFYSYMDLAYNSSLQLPDLASCLDVGNESGCGERTLDPWQGQDPAEGGQDPRINVVLAGGHVVPRDEIRKLMESQDIFTGTQTELIAGGQLLSCLSPQPAPGVDNVPEGSLPVHGEQALPKDQQITALGREEPVAIESPGQDLLGESRSEPVDVKPFASCEDSEAPVPAEDGGSDAGMCGLCQKAQLERMGVSGPSGSDLWAGAAVAKPQAKGQLAGGSLLMHCPCYGSEWGLWWRSQDLAPSPSGMAGLSFGTPTLDEPWLGVENDREELQTCLIKEQLSQLSLAGALDVPHAELVPTECQAVTAPVSSCDLGGRDLCGGCTGSSSACYALATDLPGGLEAVEAQEVDVNSFSWNLKELFFSDQTDQTSSNCSCATSELRETPSSLAVGSDPDVGSLQEQGSCVLDDRELLLLTGTCVDLGQGRRFRESCVGHDPTEPLEVCLVSSEHYAASDRESPGHVPSTLDAGPEDTCPSAEEPRLNVQVTSTPVIVMRGAAGLQREIQEGAYSGSCYHRDGLRLSIQFEVRRVELQGPTPLFCCWLVKDLLHSQRDSAARTRLFLASLPGSTHSTAAELTGPSLVEVLRARPWFEEPPKAVELEGLAACEGEYSQKYSTMSPLGSGAFGFVWTAVDKEKNKEVVVKFIKKEKVLEDCWIEDPKLGKVTLEIAILSRVEHANIIKVLDIFENQGFFQLVMEKHGSGLDLFAFIDRHPRLDEPLASYIFRQLVSAVGYLRLKDIIHRDIKDENIVIAEDFTIKLIDFGSAAYLERGKLFYTFCGAIEYCAPEVLMGNPYRGPELEMWSLGVTLYTLVFEENPFCELEETVEAAIHPPYLVSKELMSLVSGLLQPVPERRTTLEKLVTDPWVTQPVNLADYTWEEVFRVNKPESGVLSAASLEMGNRSLSDVAQAQELCGGPVPGEAPNGQGCLHPGDPRLLTS	Catalytically inactive	–	–
S1273,77,80A: PASK mutant, serine residues 1273, 1277 and 1280 changed to alanine (protein, left off: small tags and cut ends, PASK mutant, serine residues 1273, 1277 and 1280 changed to alanine) MEDGGLTAFEEDQRCLSQSLPLPVSAEGPAAQTTAEPSRSFSSAHRHLSRRNGLSRLCQSRTALSEDRWSSYCLSSLAAQNICTSKLHCPAAPEHTDPSEPRGSVSCCSLLRGLSSGWSSPLLPAPVCNPNKAIFTVDAKTTEILVANDKACGLLGYSSQDLIGQKLTQFFLRSDSDVVEALSEEHMEADGHAAVVFGTVVDIISRSGEKIPVSVWMKRMRQERRLCCVVVLEPVERVSTWVAFQSDGTVTSCDSLFAHLHGYVSGEDVAGQHITDLIPSVQLPPSGQHIPKNLKIQRSVGRARDGTTFPLSLKLKSQPSSEEATTGEAAPVSGYRASVWVFCTISGLITLLPDGTIHGINHSFALTLFGYGKTELLGKNITFLIPGFYSYMDLAYNSSLQLPDLASCLDVGNESGCGERTLDPWQGQDPAEGGQDPRINVVLAGGHVVPRDEIRKLMESQDIFTGTQTELIAGGQLLSCLSPQPAPGVDNVPEGSLPVHGEQALPKDQQITALGREEPVAIESPGQDLLGESRSEPVDVKPFASCEDSEAPVPAEDGGSDAGMCGLCQKAQLERMGVSGPSGSDLWAGAAVAKPQAKGQLAGGSLLMHCPCYGSEWGLWWRSQDLAPSPSGMAGLSFGTPTLDEPWLGVENDREELQTCLIKEQLSQLSLAGALDVPHAELVPTECQAVTAPVSSCDLGGRDLCGGCTGSSSACYALATDLPGGLEAVEAQEVDVNSFSWNLKELFFSDQTDQTSSNCSCATSELRETPSSLAVGSDPDVGSLQEQGSCVLDDRELLLLTGTCVDLGQGRRFRESCVGHDPTEPLEVCLVSSEHYAASDRESPGHVPSTLDAGPEDTCPSAEEPRLNVQVTSTPVIVMRGAAGLQREIQEGAYSGSCHHRDGLRLSIQFEVRRVELQGPTPLFCCWLVKDLLHSQRDSAARTRLFLASLPGSTHSTAAELTGPSLVEVLRARPWFEEPPKAVELEGLAACEGEYSQKYSTMSPLGSGAFGFVWTAVDKEKNKEVVVKFIKKEKVLEDCWIEDPKLGKVTLEIAILSRVEHANIIKVLDIFENQGFFQLVMEKHGSGLDLFAFIDRHPRLDEPLASYIFRQLVSAVGYLRLKDIIHRDIKDENIVIAEDFTIKLIDFGSAAYLERGKLFYTFCGTIEYCAPEVLMGNPYRGPELEMWSLGVTLYTLVFEENPFCELEETVEAAIHPPYLVSKELMSLVSGLLQPVPERRTTLEKLVTDPWVTQPVNLADYTWEEVCRVNKPEAGVLAAAALEMGNRSLSDVAQAQELCGGPVPGEAPNGQGCLHPGDPRLLTS	–	0.4	300
